Assay results taken from patent US20240400638A1, “COMBINATION OF RELAXIN AND VASOPRESSIN ANALOGUES FOR TREATMENT OF RENAL DISORDERS OR CONDITIONS” (River 2 Renal Corp., priority 2021, published 2024).
Numbered stars: 1 amine (or outer) side, 2 acyl side, 3 side chain; on linkers, the order of the positions; unused ones are H or OH. Square brackets hold non-standard residues; d marks the D form. Side chains are listed from the residue outwards. * marks the point of attachment. TTDS = 4-[3-[2-[2-(3-aminopropoxy)ethoxy]ethoxy]propylamino]-4-oxo-butanoyl; Trp(5-F) = N[C@@H](Cc1c[nH]c2ccc(F)cc12)C(=O)O; Phe(4-F) = N[C@@H](Cc1ccc(F)cc1)C(=O)O; γGlu = O=C(O)[C@H](CCC(=O)[*:2])N[*:1]; Stearoyl = CCCCCCCCCCCCCCCCCC(=O)*; Palmitoyl = CCCCCCCCCCCCCCCC(=O)*; Myristoyl = CCCCCCCCCCCCCC(=O)*; Cit = NC(=O)NCCC[C@H](N)C(=O)O; αMeK = C[C@](N)(CCCCN)C(=O)O; AEEA = NCCOCCOCC(=O)O; Aib = CC(C)(N)C(=O)O

T1: human RXFP1 (human, UniProt Q9HBX9 1-757)
T1 sequence (looked up): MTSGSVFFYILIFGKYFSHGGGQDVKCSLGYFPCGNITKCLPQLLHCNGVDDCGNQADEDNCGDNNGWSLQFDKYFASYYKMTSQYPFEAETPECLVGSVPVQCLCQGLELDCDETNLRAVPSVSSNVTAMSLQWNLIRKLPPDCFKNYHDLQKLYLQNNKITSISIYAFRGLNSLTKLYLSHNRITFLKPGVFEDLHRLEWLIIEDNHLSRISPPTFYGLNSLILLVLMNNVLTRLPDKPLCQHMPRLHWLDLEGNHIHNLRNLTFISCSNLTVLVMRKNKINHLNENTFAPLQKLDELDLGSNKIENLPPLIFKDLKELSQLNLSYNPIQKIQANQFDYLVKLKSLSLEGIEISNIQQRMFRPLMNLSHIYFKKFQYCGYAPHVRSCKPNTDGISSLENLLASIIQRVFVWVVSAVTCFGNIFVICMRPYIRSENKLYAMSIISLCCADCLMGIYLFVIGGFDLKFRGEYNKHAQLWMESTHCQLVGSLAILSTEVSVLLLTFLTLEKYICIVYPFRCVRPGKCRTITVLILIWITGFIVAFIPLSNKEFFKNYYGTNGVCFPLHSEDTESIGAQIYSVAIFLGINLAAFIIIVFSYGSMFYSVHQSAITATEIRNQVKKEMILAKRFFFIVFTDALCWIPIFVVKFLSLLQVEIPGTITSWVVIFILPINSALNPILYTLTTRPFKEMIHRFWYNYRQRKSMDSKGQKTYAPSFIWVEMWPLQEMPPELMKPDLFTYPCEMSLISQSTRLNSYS


Each binder was assayed against T1, human RXFP1 (assay: cell-based or functional assay).

| Binder | EC50 (nM), OVCAR 5 cells (cAMP) [nM] | EMax, OVCAR 5 cells (cAMP) [%] |
| --- | --- | --- |
| Ac-LEGREKVRAK(Ac)I[Aib][Aib]EGK([TTDS-TTDS-TTDS-γGlu-γGlu-γGlu-Palmitoyl])STFVRRAK(Ac)-NH2 [Relaxin peptide analogue of SEQ ID NO: 94] | 1.74 | 88 |
| Ac-LEGREKVRAK(Ac)I[Aib][Aib]EGK([AEEA-AEEA-AEEA-AEEA-γGlu-γGlu-γGlu-Stearoyl])STWS[Aib]RKK(Ac)-NH2 (SMILES CCCCCCCCCCCCCCCCCC(=O)N[C@@H](CCC(=O)N[C@@H](CCC(=O)N[C@@H](CCC(=O)NCCOCCOCC(=O)NCCOCCOCC(=O)NCCOCCOCC(=O)NCCOCCOCC(=O)NCCCC[C@H](NC(=O)CNC(=O)[C@H](CCC(=O)O)NC(=O)C(C)(C)NC(=O)C(C)(C)NC(=O)[C@@H](NC(=O)[C@H](CCCCNC(C)=O)NC(=O)[C@H](C)NC(=O)[C@H](CCCNC(=N)N)NC(=O)[C@@H](NC(=O)[C@H](CCCCN)NC(=O)[C@H](CCC(=O)O)NC(=O)[C@H](CCCNC(=N)N)NC(=O)CNC(=O)[C@H](CCC(=O)O)NC(=O)[C@H](CC(C)C)NC(C)=O)C(C)C)[C@@H](C)CC)C(=O)N[C@@H](CO)C(=O)N[C@H](C(=O)N[C@@H](Cc1c[nH]c2ccccc12)C(=O)N[C@@H](CO)C(=O)NC(C)(C)C(=O)N[C@@H](CCCNC(=N)N)C(=O)N[C@@H](CCCCN)C(=O)N[C@@H](CCCCNC(C)=O)C(N)=O)[C@@H](C)O)C(=O)O)C(=O)O)C(=O)O) [Relaxin peptide analogue of SEQ ID NO: 21] | 0.65 | 93 |
| Ac-LEGREKVRAK(Ac)I[Aib][Aib]EGK([TTDS-TTDS-γGlu-γGlu-γGlu-γGlu-Palmitoyl])STFS[αMeK]RAK(Ac)-NH2 [Relaxin peptide analogue of SEQ ID NO: 10] | 0.79 | 95 |
| Ac-LEGRERVRAK(Ac)I[Aib][Aib]EGK([TTDS-TTDS-TTDS-γGlu-γGlu-γGlu-Palmitoyl])ST[Phe(4-F)]S[Aib]RRK(Ac)-NH2 [Relaxin peptide analogue of SEQ ID NO: 91] | 0.09 | 97 |
| Ac-LEGREKVRAK(Ac)I[Aib][Aib]EGK([TTDS-TTDS-TTDS-γGlu-γGlu-γGlu-Palmitoyl])STFS[Aib]RAK(Ac)-NH2 [Relaxin peptide analogue of SEQ ID NO: 2] | 2.4 | 99 |
| Ac-LEGREKVRAK(Ac)I[Aib][Aib]EGK([TTDS-TTDS-γGlu-γGlu-Palmitoyl])STFS[αMeK]RAK(Ac)-NH2 [Relaxin peptide analogue of SEQ ID NO: 9] | 0.7 | 93 |
| Ac-LEGREKVRAK(Ac)I[Aib][Aib]EGK([TTDS-TTDS-TTDS-γGlu-γGlu-γGlu-Palmitoyl])STFTRRAK(Ac)-NH2 [Relaxin peptide analogue of SEQ ID NO: 93] | 0.77 | 86 |
| Ac-LEGREKVRAK(Ac)I[Aib][Aib]EGK([TTDS-TTDS-TTDS-γGlu-γGlu-γGlu-γGlu-Myristoyl])STFS[αMeK]RAK-NH2 [Relaxin peptide analogue of SEQ ID NO: 97] | 0.29 | 98 |
| Ac-LEGREKVRAK(Ac)I[Aib][Aib]EGK([TTDS-TTDS-γGlu-γGlu-γGlu-Palmitoyl])STWS[dK]RKK(Ac)-NH2 [Relaxin peptide analogue of SEQ ID NO: 18] | 1.54 | 92 |
| Ac-LEGREKVRAK(Ac)I[Aib][Aib]EGK([AEEA-AEEA-AEEA-γGlu-γGlu-γGlu-Palmitoyl])STWS[Aib]RKK(Ac)-NH2 (SMILES CCCCCCCCCCCCCCCC(=O)N[C@@H](CCC(=O)N[C@@H](CCC(=O)N[C@@H](CCC(=O)NCCOCCOCC(=O)NCCOCCOCC(=O)NCCOCCOCC(=O)NCCCC[C@H](NC(=O)CNC(=O)[C@H](CCC(=O)O)NC(=O)C(C)(C)NC(=O)C(C)(C)NC(=O)[C@@H](NC(=O)[C@H](CCCCNC(C)=O)NC(=O)[C@H](C)NC(=O)[C@H](CCCNC(=N)N)NC(=O)[C@@H](NC(=O)[C@H](CCCCN)NC(=O)[C@H](CCC(=O)O)NC(=O)[C@H](CCCNC(=N)N)NC(=O)CNC(=O)[C@H](CCC(=O)O)NC(=O)[C@H](CC(C)C)NC(C)=O)C(C)C)[C@@H](C)CC)C(=O)N[C@@H](CO)C(=O)N[C@H](C(=O)N[C@@H](Cc1c[nH]c2ccccc12)C(=O)N[C@@H](CO)C(=O)NC(C)(C)C(=O)N[C@@H](CCCNC(=N)N)C(=O)N[C@@H](CCCCN)C(=O)N[C@@H](CCCCNC(C)=O)C(N)=O)[C@@H](C)O)C(=O)O)C(=O)O)C(=O)O) [Relaxin peptide analogue of SEQ ID NO: 19] | 11.5 | 94 |
| Ac-LEGREKVRAK(Ac)I[Aib][Aib]EGK([TTDS-TTDS-TTDS-γGlu-γGlu-γGlu-Myristoyl])STFS[αMeK]RAK(Ac)-NH2 [Relaxin peptide analogue of SEQ ID NO: 95] | 1.8 | 91 |
| Ac-LEGREKVRAK(Ac)I[Aib][Aib]EGK([TTDS-TTDS-TTDS-γGlu-γGlu-γGlu-Palmitoyl])STF[dS]KRAK(Ac)-NH2 [Relaxin peptide analogue of SEQ ID NO: 14] | 3.2 | 90 |
| Ac-LEGRERVRAK(Ac)I[Aib][Aib]EGK([TTDS-TTDS-TTDS-γGlu-γGlu-γGlu-Palmitoyl])ST[Trp(5-F)]S[Aib]RRK(Ac)-NH2 [Relaxin peptide analogue of SEQ ID NO: 92] | 0.1 | 99 |

Second part, the binder after the results:

| EC50 (nM), OVCAR 5 cells (cAMP) [nM] | EMax, OVCAR 5 cells (cAMP) [%] | Binder |
| --- | --- | --- |
| 6.8 | 88 | Ac-LEGREKVRAK(Ac)I[Aib][Aib]EGK([TTDS-TTDS-γGlu-γGlu-γGlu-Palmitoyl])STFS[dK]RAK(Ac)-NH2 [Relaxin peptide analogue of SEQ ID NO: 16] |
| 0.83 | 93 | Ac-LEGREKVRAK(Ac)I[Aib][Aib]EGK([TTDS-TTDS-TTDS-γGlu-γGlu-γGlu-Palmitoyl])STWS[αMeK]RAK(Ac)-NH2 [Relaxin peptide analogue of SEQ ID NO: 11] |
| 4.6 | 91 | Ac-LEGREKVRAK(Ac)I[Aib][Aib]EGK([TTDS-TTDS-γGlu-γGlu-γGlu-Palmitoyl])STWS[dK]RAK(Ac)-NH2 [Relaxin peptide analogue of SEQ ID NO: 17] |
| 11.1 | 92 | Ac-LEGRELVRAK(Ac)I[Aib][Aib]EGK([TTDS-TTDS-TTDS-γGlu-γGlu-γGlu-Palmitoyl])STFS[αMeK]RAK(Ac)-NH2 [Relaxin peptide analogue of SEQ ID NO: 23] |
| 2.12 | 91 | Ac-LEGREKVRAK(Ac)I[Aib][Aib]EGK([TTDS-TTDS-TTDS-γGlu-γGlu-γGlu-Palmitoyl])STFSKRAK(Ac)-NH2 [Relaxin peptide analogue of SEQ ID NO: 13] |
| 0.88 | 92 | Ac-LEGREKVRAK(Ac)I[Aib][Aib]EGK([TTDS-TTDS-TTDS-γGlu-γGlu-γGlu-Myristoyl])STFS[αMeK]RAK-NH2 [Relaxin peptide analogue of SEQ ID NO: 96] |
| 2.1 | 85 | Ac-LEGREKVRAK(Ac)I[Aib][Aib]EGK([TTDS-TTDS-TTDS-γGlu-γGlu-γGlu-Palmitoyl])STF[Aib]KRAK(Ac)-NH2 [Relaxin peptide analogue of SEQ ID NO: 15] |
| 0.93 | 90 | Ac-LEGREKVRA[Cit]I[Aib][Aib]EGK([TTDS-TTDS-TTDS-γGlu-γGlu-γGlu-Palmitoyl])STFS[αMeK]RAK(Ac)-NH2 [Relaxin peptide analogue of SEQ ID NO: 12] |
| 36.4 | 100 | Ac-LEGREFVRAK(Ac)I[Aib][Aib]EGK([TTDS-TTDS-TTDS-γGlu-γGlu-γGlu-Palmitoyl])STFS[αMeK]RAK(Ac)-NH2 [Relaxin peptide analogue of SEQ ID NO: 24] |
| 0.15 | 96 | Ac-LEGREKVRAK(Ac)I[Aib][Aib]EGK([TTDS-TTDS-TTDS-γGlu-γGlu-γGlu-Stearoyl])STWS[Aib]RKK(Ac)-NH2 [Relaxin peptide analogue of SEQ ID NO: 20] |
| 1 | 92 | LEGREKVRAKIXXEGKSTFSKRAK (Ac-L-E-G-R-E-K-V-R-A-K(Ac)-I-Aib-Aib-E-G-K(PEG2DGA-PEG2DGA-PEG2DGA-gE-gE-gE-Palm)-S-T-F-S-Mly-R-A-K(Ac)-NH2) [Relaxin peptide analogue of SEQ ID NO: 22] |
